The values below come from patent US9707267B2, “Beta-turn peptidomimetic cyclic compounds for treating dry eye” (Mimetogen Pharmaceuticals, Inc., priority 2008, dated 2017).

Series [1] deals with scopolamine induced dry eye model. Description: Scopolamine induced dry eye model, Schirmer test (Example 3). It is filed as in vivo, rat. The settings on record: single topical instillation of 1% on day eight; measured day thirteen. Here is the method: (§1) Dry eye was induced using scopolamine (Sigma-Aldrich, St. Louis, Mo.), which was continuously and systemically delivered to the animals via an osmotic pump (2ML4 Alzet®; CedarLane, Burlington, Ontario) filled with scopolamine and implanted subcutaneously in the mid dorsal area between the scapulae. The wound was closed with 2-3 wound clips. After the surgery and again the next day, the animals were subcutaneously injected with Carprofen (0.5 mg/100 g) a non-steroidal anti-inflammatory drug and potent, long-acting analgesic in rodents. Animals were anaesthetized before the surgical pump implantation and before all clinical endpoint testing in an Isofluorane 99.9% USP (Abraxis Bioscience, Richmond Hill, Ontario) chamber. […]
Tear production was measured with Zone-Quick standardized phenol-red threads (FCI Ophthalmics, Marshfield Hills, Mass.) on animals lightly sedated with Isoflurane. […] The length of the stained moistened portion of the thread was measured in millimeters, using the scale provided with the threads to an accuracy of 1 mm. […]

For series [2] the test system is unchanged. Put plainly: Scopolamine induced dry eye model, corneal fluorescein staining (Example 3). It counts as in vivo, rat. The settings on record: single topical 5 μl of 1% (10 mg/mL) on day eight; read day fourteen; score 0 to 4. The method, then:
as §1, with “chamber. Scopolamine was delivered at 12.5 mg/day and, for technical reasons, the data was evaluated at day 14.” for “chamber.”
The clinical signs of corneal dryness were evaluated by fluorescein impregnation of the cornea. […] For each animal, the punctate fluorescent-positive area of the ocular surface was recorded in a blinded fashion. […]

In a further series the test system is cultured goblet cells. Description: Goblet cell proliferation, Alamar Blue (Example 2). It is filed as cell-based, rat. As to conditions: serum-free media. Here is the method:
The culturing of conjunctival goblet cells from explant cultures was as previously described in Shatos, M. et al., “Isolation, Characterization, and Propagation of Rat Conjunctival Goblet Cells In Vitro,” IOVS 42:1455-1464 (2001), the entire content of which is incorporated herein by reference. The tissue was finely minced and individual pieces were anchored onto scored 6-well cultures dishes in 0.5 mL of complete RPMI-1640 (supplemented with 10% FBS, 2 mM glutamine and 100 μg/mL penicillin-streptomycin) and incubated at 37° C. in a humidified 5% CO2-atmosphere. Explant cultures were refed every 2 days. Within a few days, goblet cells migrated from the pieces and began to proliferate. After approximately one week, the tissue plugs were removed and the goblet cells were allowed to grow to confluence. […]
Cell proliferation was measured using Alamar Blue from Biosource (Invitrogen Corporation, Carlsbad, Calif.) according to the manufacture's protocol. […] After 24 hours, 10% Alamar Blue was added for 6 hours and the absorbance was read at 570 and 600 nm on a Benchmark Plus (Biorad). The percentage of Alamar Blue reduction was calculated according to the manufacture's instructions. […]
Background: Alamar Blue is a resazurin reagent that responds to reducing activity.

Series [3] can be described thus: Scopolamine induced rat dry eye model, body weights (Example 5). It counts as in vivo. The settings on record: ± SD. Here is the method: After the surgery and again the next day, the animals were subcutaneously injected with Caprofen (0.5 mg/100 g) a non-steroidal anti-inflammatory drug and potent, long-acting analgesic in rodents. Animals were weighed prior to pump implantation on Day−1, and then once a week for four weeks. This dosing regimen was reported to induce dry eye in rats (Viau S et al., “Time course of ocular surface and lacrimal gland changes in a new scopolamine-induced dry eye model,” Graefes Arch Clin Exp Ophthalmol., 246:857-867 (2008), the entire content of which is incorporated herein by reference).
There were no mortalities. […] Conjunctival congestion and conjunctival bloody discharge usually resolved the next day, but conjunctival swelling continued throughout the study. Pre-treatment, mean body weight was approximately 400 g, and was not statistically different among groups (p=0.3927) (Table 10). Mean body weight in the untreated control groups (G1) increased to approximately 575 g throughout the study. In the five groups receiving scopolamine (G2-G6), mean body weight increased to approximately 425 to 450 g. There was a statistically significant effect of treatment to decrease body weight starting on Day 14, continuing through Day 28 (p<0.0001 to 0.0426) (FIG. 24).

For `NCCCC[C@@H]1NC(=O)[C@H](CCC(=O)O)NC(=O)c2cc([N+](=O)[O-])ccc2OCCC(C(=O)NCC(=O)O)NC1=O` (stereo partly drawn) [Compound D3], the “aqueous tear production, Schirmer test (in words)” value in series [1] is given as “no effect on aqueous tear production”. Moreover, in series [2], the “corneal fluorescein staining, mean score” value is reported as 1.1±0.1 score. Besides, in the series with cultured goblet cells (concentrations up to 100 μM, by day four), the “goblet cell proliferation (in words)” value is listed as “did not stimulate goblet cell proliferation”.

“NGF: nerve growth factor (recombinant human), positive control”: the “Body Weights” value was 417 ± 16 g in series [3] (0.00053% group, Day −1, pre-treatment); 396 ± 20 g in series [3] (scopolamine + 0.00053% topical 1× daily Days 5-21, Day 7); 399 ± 18 g in series [3] (scopolamine + 0.00053% topical 1× daily Days 5-21, Day 14); 417 ± 16 g in series [3] (scopolamine + 0.00053% topical 1× daily Days 5-21, Day 20); 438 ± 22 g in series [3] (scopolamine + 0.00053% topical 1× daily Days 5-21, Day 29). In the series on cultured goblet cells (NGF 10 pM to 10 nM, up to day four), the “goblet cell proliferation (in words)” value is “did not increase proliferation”.
